Source: PMC10397247
Values belong to the binder of their own block, whether it stands above or below them.

Experiments:
Assay in all cases: two-hybrid library CCmax;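 note: natural log of median RNA to DNA barcode read ratio; higher means stronger binding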
4H953-AA = target: T1, 4H953-AA
T1 chain: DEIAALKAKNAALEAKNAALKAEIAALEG

4H967-AA = target: T2, 4H967-AA; settings: mean of both orientations
T2 chain: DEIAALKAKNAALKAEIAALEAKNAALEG

4H3409-AA = target: T3, 4H3409-AA
T3 chain: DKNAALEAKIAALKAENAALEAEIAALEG

4H3625-AA = target: T4, 4H3625-AA; settings: mean of both orientations
T4 chain: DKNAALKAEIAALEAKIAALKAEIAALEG

4H390-AA = target: T5, 4H390-AA; settings: mean of both orientations
T5 chain: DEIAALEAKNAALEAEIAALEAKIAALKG

4H3940-AA = target: T6, 4H3940-AA; settings: mean of both orientations
T6 chain: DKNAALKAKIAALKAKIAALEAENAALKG

4H510-AA = target: T7, 4H510-AA; settings: mean of both orientations
T7 chain: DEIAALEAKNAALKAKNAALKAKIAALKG

4H775-AA = target: T8, 4H775-AA; settings: mean of both orientations
T8 chain: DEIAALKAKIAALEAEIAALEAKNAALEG

4H816-AA = target: T9, 4H816-AA; settings: mean of both orientations
T9 chain: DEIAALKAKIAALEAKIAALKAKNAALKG

4H87-AA = target: T10, 4H87-AA; settings: mean of both orientations
T10 chain: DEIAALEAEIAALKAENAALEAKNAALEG

4H406-AA = target: T11, 4H406-AA
T11 chain: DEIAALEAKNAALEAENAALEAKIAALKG

4H452-AA = target: T12, 4H452-AA; settings: mean of both orientations
T12 chain: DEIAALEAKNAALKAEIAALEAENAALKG

4H56-AA = target: T13, 4H56-AA; settings: mean of both orientations
T13 chain: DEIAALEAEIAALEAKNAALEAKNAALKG

4H688-AA = target: T14, 4H688-AA; settings: mean of both orientations
T14 chain: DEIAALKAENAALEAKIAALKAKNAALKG

4H963-AA = target: T15, 4H963-AA; settings: mean of both orientations
T15 chain: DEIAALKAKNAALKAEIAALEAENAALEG

4H_APH = target: T16, 4H_APH; settings: mean of both orientations
T16 chain: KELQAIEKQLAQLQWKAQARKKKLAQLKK

4H_BCR = target: T17, 4H_BCR; settings: mean of both orientations
T17 chain: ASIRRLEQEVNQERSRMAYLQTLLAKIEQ

4H_GCN4 = target: 4H_GCN4
GCN2_T = target: GCN2_T
4H2389-AA = target: T18, 4H2389-AA
T18 chain: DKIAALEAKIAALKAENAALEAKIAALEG

4H2438-AA = target: T19, 4H2438-AA; settings: mean of both orientations
T19 chain: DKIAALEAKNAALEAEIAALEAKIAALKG

4H2473-AA = target: T20, 4H2473-AA; settings: mean of both orientations
T20 chain: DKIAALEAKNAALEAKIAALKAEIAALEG

4H2649-AA = target: T21, 4H2649-AA; settings: mean of both orientations
T21 chain: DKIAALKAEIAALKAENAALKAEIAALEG

4H2698-AA = target: T22, 4H2698-AA; settings: mean of both orientations
T22 chain: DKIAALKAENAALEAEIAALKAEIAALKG

4H2725-AA = target: T23, 4H2725-AA; settings: mean of both orientations
T23 chain: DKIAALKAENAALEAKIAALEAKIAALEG

4H2865-AA = target: T24, 4H2865-AA; settings: mean of both orientations
T24 chain: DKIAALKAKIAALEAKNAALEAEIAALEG

4H3009-AA = target: T25, 4H3009-AA; settings: mean of both orientations
T25 chain: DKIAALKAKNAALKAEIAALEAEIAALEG

4H3016-AA = target: T26, 4H3016-AA; settings: mean of both orientations
T26 chain: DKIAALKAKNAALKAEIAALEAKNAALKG

4H310-AA = target: T27, 4H310-AA; settings: mean of both orientations
T27 chain: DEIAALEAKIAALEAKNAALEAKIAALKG

4H3120-AA = target: T28, 4H3120-AA; settings: mean of both orientations
T28 chain: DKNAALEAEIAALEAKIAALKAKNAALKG

4H3130-AA = target: T29, 4H3130-AA; settings: mean of both orientations
T29 chain: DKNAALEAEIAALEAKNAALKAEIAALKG

4H3165-AA = target: T30, 4H3165-AA; settings: mean of both orientations
T30 chain: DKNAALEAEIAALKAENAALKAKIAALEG

4H3381-AA = target: T31, 4H3381-AA; settings: mean of both orientations
T31 chain: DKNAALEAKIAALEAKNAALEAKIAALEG

4H3395-AA = target: T32, 4H3395-AA; settings: mean of both orientations
T32 chain: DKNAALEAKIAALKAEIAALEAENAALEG

4H3410-AA = target: T33, 4H3410-AA; settings: mean of both orientations
T33 chain: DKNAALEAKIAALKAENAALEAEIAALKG

4H3590-AA = target: T34, 4H3590-AA; settings: mean of both orientations
T34 chain: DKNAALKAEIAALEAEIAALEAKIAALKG

4H3697-AA = target: T35, 4H3697-AA; settings: mean of both orientations
T35 chain: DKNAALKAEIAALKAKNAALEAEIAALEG

4H3753-AA = target: T36, 4H3753-AA; settings: mean of both orientations
T36 chain: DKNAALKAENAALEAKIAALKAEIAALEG

4H3865-AA = target: T37, 4H3865-AA; settings: mean of both orientations
T37 chain: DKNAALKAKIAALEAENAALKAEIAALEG

4H458-AA = target: T38, 4H458-AA; settings: mean of both orientations
T38 chain: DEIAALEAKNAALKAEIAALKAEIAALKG

4H485-AA = target: T39, 4H485-AA
T39 chain: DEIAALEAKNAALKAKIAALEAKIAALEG

4H536-AA = target: T40, 4H536-AA; settings: mean of both orientations
T40 chain: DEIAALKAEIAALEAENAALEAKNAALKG

4H570-AA = target: T41, 4H570-AA; settings: mean of both orientations
T41 chain: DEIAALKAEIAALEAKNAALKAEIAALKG

4H629-AA = target: T42, 4H629-AA; settings: mean of both orientations
T42 chain: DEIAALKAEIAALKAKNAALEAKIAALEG

4H710-AA = target: T43, 4H710-AA; settings: mean of both orientations
T43 chain: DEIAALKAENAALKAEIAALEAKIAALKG

4H745-AA = target: T44, 4H745-AA; settings: mean of both orientations
T44 chain: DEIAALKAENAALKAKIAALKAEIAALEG

4H797-AA = target: T45, 4H797-AA; settings: mean of both orientations
T45 chain: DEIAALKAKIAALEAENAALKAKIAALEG

4H850-AA = target: T46, 4H850-AA; settings: mean of both orientations
T46 chain: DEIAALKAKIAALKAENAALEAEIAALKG

4H891-AA = target: T47, 4H891-AA; settings: mean of both orientations
T47 chain: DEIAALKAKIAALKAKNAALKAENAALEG

4H909-AA = target: T48, 4H909-AA; settings: mean of both orientations
T48 chain: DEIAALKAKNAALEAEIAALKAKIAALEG

4H930-AA = target: T49, 4H930-AA; settings: mean of both orientations
T49 chain: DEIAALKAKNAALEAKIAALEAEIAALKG

4H94-AA = target: T50, 4H94-AA; settings: mean of both orientations
T50 chain: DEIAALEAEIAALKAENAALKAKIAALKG

Sequence of 4H_GCN4 (chain, as listed by the source): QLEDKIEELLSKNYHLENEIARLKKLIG

Binder: DEIAALKAKNAALEAKNAALKAEIAALEG [4H953-AA]
interaction score (4H953-AA): -1.02 | interaction score (4H967-AA): -1.73

Binder: DEIAALEAKNAALEAENAALEAKIAALKG [4H406-AA]
interaction score (4H406-AA): -0.644 | interaction score (4H452-AA): -0.548 | interaction score (4H56-AA): -1.47 | interaction score (4H688-AA): -1.54 | interaction score (4H963-AA): -1.6 | interaction score (4H_APH): -1.29 | interaction score (4H_BCR): -2.11 | interaction score (4H_GCN4): -1.67 | interaction score (GCN2_T): -1.43

The next lines start with the values.

interaction score (4H3409-AA): -1.02 | interaction score (4H3625-AA): -0.625 | interaction score (4H390-AA): -1.28 | interaction score (4H3940-AA): -1.12 | interaction score (4H510-AA): 0.697 | interaction score (4H775-AA): -1.25 | interaction score (4H816-AA): -1.37 | interaction score (4H87-AA): -1.93
Binder: DKNAALEAKIAALKAENAALEAEIAALEG [4H3409-AA]

interaction score (4H2389-AA): 2.02 | interaction score (4H2438-AA): -0.27 | interaction score (4H2473-AA): -1.3 | interaction score (4H2649-AA): 1.07 | interaction score (4H2698-AA): -0.843 | interaction score (4H2725-AA): -0.942 | interaction score (4H2865-AA): 1.02 | interaction score (4H3009-AA): 1.53 | interaction score (4H3016-AA): 0.227 | interaction score (4H310-AA): 1.8 | interaction score (4H3120-AA): -0.79 | interaction score (4H3130-AA): 1.81 | interaction score (4H3165-AA): 0.858 | interaction score (4H3381-AA): -0.842 | interaction score (4H3395-AA): -1.54 | interaction score (4H3410-AA): -1.2 | interaction score (4H3590-AA): -0.0915 | interaction score (4H3697-AA): -1.74 | interaction score (4H3753-AA): -1.26 | interaction score (4H3865-AA): -0.601 | interaction score (4H458-AA): -0.364 | interaction score (4H485-AA): 0.153 | interaction score (4H536-AA): -0.282 | interaction score (4H570-AA): 1.65 | interaction score (4H629-AA): -0.106 | interaction score (4H710-AA): 0.392 | interaction score (4H745-AA): -1.25 | interaction score (4H797-AA): 1.3 | interaction score (4H850-AA): -0.804 | interaction score (4H891-AA): -0.959 | interaction score (4H909-AA): -1.35 | interaction score (4H930-AA): -0.305 | interaction score (4H94-AA): 1.99
Binder: DKIAALEAKIAALKAENAALEAKIAALEG [4H2389-AA]
